Biological target: T1, inhibin A (InhA), mature heterodimer, unlabelled (UniProt P05111 233-366; P08476 311-426)
T1 construct: inhibin α subunit, residues 233-366 of NP_002182.1; inhibin βA subunit, residues 311-426 of NP_002183.1; The His and Strep tags stood on the two chains of the pro-inhibin; source: expi293F, secreted as pro-inhibin, purified by His and Strep tags; mature dimer purified on C18 RPC; copies: 1 + 1
T1 sequence (looked up) 1: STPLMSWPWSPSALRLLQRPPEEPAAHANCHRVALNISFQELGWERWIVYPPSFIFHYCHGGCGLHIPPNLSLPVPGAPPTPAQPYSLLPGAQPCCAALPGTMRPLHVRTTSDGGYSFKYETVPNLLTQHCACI
T1 sequence (looked up) 2: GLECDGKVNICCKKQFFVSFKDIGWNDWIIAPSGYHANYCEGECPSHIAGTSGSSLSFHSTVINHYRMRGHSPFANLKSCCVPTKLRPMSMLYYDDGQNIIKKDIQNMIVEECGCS
Assay: NMR titration; methyl 1H-13C SOFAST-HMQC of labelled BG_ZP-C (15-25 µM) with growth factors; 25 mM 2H-glycine pH 11.0 or 25 mM phosphate pH 6.0; 37 °C
Details: both partners purified

- binding result: binds
B1: rat betaglycan ZP-C domain, bacterially expressed, isotopically labelled (domain or fragment, UniProt P26342 590-757, looked up)
chain: GNATFNMELYNTDLFLVPSPGVFSVAENEHVYVEVSVTKADQDLGFAIQTCFLSPYSNPDRMSDYTIIENICPKDDSVKFYSSKRVHFPIPHAEVDKKRFSFLFKSVFNTSLLFLHCELTLCSRKKGSLKLPRCVTPDDACTSLDATMIWTMMQNKKTFTKPLAVVLQ
modifications: 2H, 13C-methyl Isoleucine, Leucine, Valine (ILV) labeled
notes: betaglycan (TGFBR3), rat, residues 590-757 of NCBI NP_058952; A thrombin site lies between the Trx-His6 cassette and the domain; also called 13C-methyl-Ile BG_(ZP-C); ILV labeled BG_(ZP-C)
